Measurements published in article PMC9889962.

What was measured:
Assay in all cases: SPR
[1] = biological target: SARS-CoV-2 Omicron BA.5 spike protein trimer (SARS-CoV-2) (UniProt P0DTC2)
[2] = biological target: SARS-CoV-2 Omicron BA4.6 spike protein trimer (SARS-CoV-2) (UniProt P0DTC2)
[3] = biological target: SARS-CoV-2 Omicron BQ.1.1 spike protein trimer (SARS-CoV-2) (UniProt P0DTC2)
[4] = biological target: SARS-CoV-2 Omicron BA2.75 spike protein trimer (SARS-CoV-2) (UniProt P0DTC2)
[5] = biological target: SARS-CoV-2 Omicron BA.2 spike protein trimer (SARS-CoV-2) (UniProt P0DTC2)
[6] = biological target: SARS-CoV-2 Omicron XBB.1 spike protein trimer (SARS-CoV-2) (UniProt P0DTC2)

**Q.** How did the Kd [1] turn out when “LiVE-Longer YTE chimera (ACE-2 LVE/STR-YTE fusion protein) (from UniProt Q9BYF1 18-740) (Fc fusion)” was run?
**A.** Its Kd is 5.43 pM.

**Q.** And the Kd [2]?
**A.** The Kd was 845 pM.

**Q.** And the Kd [3]?
**A.** Its Kd is 1.81 pM.

**Q.** And the Kd [4]?
**A.** The Kd was 0.133 pM.

**Q.** What about the Kd [5] of the same substance?
**A.** The Kd was 0.078 pM.

**Q.** And the Kd [6]?
**A.** Its Kd is 215 pM.
